From US20030157522A1, “Methods and reagents for peptide-BIR interaction screens” (priority 2001, published 2003)
No end group written: not given here.

How the values were obtained:
[1] = tested on: T24 bladder carcinoma cells; experiment: Sensitization of adriamycin-resistant T24 cells (cell survival); assay type: cell-based; details: 10 μg/ml adriamycin alone
Protocol: FIG. 8 is a schematic illustration showing the effect of a compound identified as being capable of dislodging a HID 7mer from XIAP BIR3 on cell survival of T24 bladder carcinoma cells after 24 hours of exposure to 10 μg/ml adriamycin.
This is what we would expect from a compound that blocks the ability of IAPs to block caspases once the cell death pathways are activated by a death stimulus such as chemotherapy or radiation. Cancer cells in vivo may also die by the simple addition of the compound if the cancer cell is stressed by oncogene activation, nutrient deprivation, or loss of contact, and the IAPs are blocking caspases from effecting programmed cell death. The compound would be expected to antagonize IAP function and allow caspase activation under these situations.

XIAP BIR3 [2] = target: T1, XIAP BIR3 (Homo sapiens, UniProt P98170); experiment: Fluorescence polarization HID peptide displacement assay; assay type: binding; details: GST BIR3/Ring, fluorescein-HID probe
T1 construct: as the C-terminal portion of XIAP lacking BIR1 and BIR2, and containing BIR3 and the RING domain to the final C-terminal residue; made in house; host or cells: E. coli
T1 sequence (P98170 246-497 limits assumed): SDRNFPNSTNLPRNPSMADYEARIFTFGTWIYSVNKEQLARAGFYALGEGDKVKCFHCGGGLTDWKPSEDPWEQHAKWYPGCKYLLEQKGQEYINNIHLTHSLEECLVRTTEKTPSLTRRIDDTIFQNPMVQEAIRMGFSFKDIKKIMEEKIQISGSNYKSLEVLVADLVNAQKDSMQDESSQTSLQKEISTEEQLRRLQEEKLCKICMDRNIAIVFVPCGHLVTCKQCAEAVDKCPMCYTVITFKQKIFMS
Text: We developed an assay to screen for compounds capable of competing for the binding of an IAP-interacting peptide and displacing the peptide from its binding groove on BIR3 of XIAP (FIGS. 2-5). The BIR3 domain was produced as a GST fusion protein in E. Coli, as the C-terminal portion of XIAP lacking BIR1 and BIR2, and containing BIR3 and the RING domain to the final C-terminal residue, and purified to greater than 95% purity. Only the properly folded BIR3 domain is required here, and many fusion and purification strategies are available to achieve this.
The FP assay is based on the following principles: a smaller molecule tumbles more rapidly in solution than a larger one. A tumbling fluor will depolarize plane-polarized light, and any change in tumbling rate due to binding of the peptide to a larger molecule such as XIAP or the displacement of the peptide from XIAP, and therefore any change in fluorescence polarization can be accurately and sensitively measured (FIGS. 2A and 2B). […]
Assays and High Throughput assays. […] Following overnight incubation at 4° C., the fluorescence polarization was measured using a Polarion plate reader (Tecan, Research Triangle Park, N.C.). […]
Upon primary screening, hits were re-supplied from Talon Cheminformatics (Acton, ON, Canada) and a new 20 mM drug stock was prepared in 10% DMSO. […] Fluorescence Polarization Units are expressed in MP (FIG. 6).

XIAP BIR3 [3] = target: T1, XIAP BIR3; details: previously shown; cited from earlier work

| competition with / displacement of fluorescein-labeled HID peptide from XIAP BIR3 (XIAP BIR3 [2]; listed as HID polypeptide) | Compound | cell death with adriamycin on its own [1] | competition with / displacement of fluorescein-labeled HID peptide from XIAP BIR3 (XIAP BIR3 [2]) | binding affinity to XIAP BIR3 (XIAP BIR3 [3]) |
| --- | --- | --- | --- | --- |
| – | COc1cccc2c1C(=O)c1c(O)c3c(c(O)c1C2=O)C[C@@](O)(C(=O)CO)C[C@@H]3O[C@H]1C[C@H](N)[C@H](O)[C@H](C)O1 [adriamycin] | does not result in any cell death | – | – |
| can compete with labeled HID polypeptide | Ala-Val-Pro-Phe-Tyr-Leu-Pro-Gly-Gly (AVPFYLPGG; not fully specified (C-terminus); printed as Ala-Val-Pro-Phe-Tyr-Leu-Pro-Gly-Gly; also: fluorescein label (probe form)) [HID peptide, peptide based on Drosophila HID with Gly-Gly spacer] | – | compete off the fluorescein-labeled peptide | high affinity |
